Source: the DeepSol protein solubility set

Test: soluble on expression in E. coli; label from the status in PepcDB or PDB records

| Sequence | soluble on expression in E. coli |
| --- | --- |
| METADTYTIVLTERNMGYAGQFYMVSKEGIGEAPISVGSGYGNPLMFSIKAVGSVTKGIMNDPYGEIGIRGPYGNVWPWKSYEHVVAIAGGIGIPPIKALIEDMQGHTSLDKLTVLYGARSPSDIVYRSEIETWKEEMDFRITVDKGDENWRGHVGVVTTLVPEIKEYNHGAAFVIGPPVMMKFSVKSLLDAGFAEDNIYLSLERRMECGIGVCGHCNIGRWYACEDGPIFKYSDTKEEPELFL | not soluble |
| GSYHADPSLVSFLTGLGCPNCIEYFTSQGLQSIYHLQNLTIEDLGALKIPEQYRMTIWRGLQDLKQGHDYSTAQQLLRSS | soluble |
| NKDNPYIKPDDPRPVVLFCSTFSPSLTCAPEVFEQIKALSQKSQWRWLVQFHPKMKPSIVEQYKTLENENLQFVETDNVIPLLQAGDVMLCDTSSILLMFLMQRKPVVTFKNQSPKAHLIDINRVEEIEPAITRALSRTDDLMAHIHDYCNQIHPTGDGQSSQRVLAATDA | not soluble |
| MSLKTVVVIGGGITGLSTMFYLEKLKKDYNIDLNLILIEKEEYLGGKIHSVEEKDFIMESGADSIVARNEHVMPLVKDLNLEDEMVYNETGISYIYSENMLHPIPSDTIFGIPMSVQSLFSSTLVSTKGKIVALKDFITKNKEFTKDTSLALFLESFLGKELVERQIAPVLSGVYSGKLNELTMASTLPYLLDYKNKYGSIIKGFEENKKQFQSAGNKKFVSFKGGLSTIINRLEEVLTETVVKKGVITTAVSKQEDRYEISFANHETIQADYVVLAAPHDIAQTLLQSNELNEQFNTFKNSSLISIYLGFDILDEQLPADGTGFIVTENSDLHCDACTWTSRKWKHTSGKQKLLVRMFYKSTNPVYETIKNYSEEELVRVALYDIEKSLGIKGEPEVVEVTNWKDLMPKYHLEHNQAVQALQEKMTNLYPNVYLAGASYYGVGIGACIGNGKNIANEIMDTLNKEGHHHHHH | soluble |
| MSLSLLLSILCMTQAKDRIVERPPFLAQSSSSIEIDKIVMSDTVTTVYIKAFYRPKYWIKIATGSVLKDNNGNLYPVRKGIGITLDKEFWMPESGEAEFQLTFPPIPQNVTCLDFSEGDFEGAYKIWGIQLDKKTFSKFKLPKDVTVTKADHKTTLPEPVVKYAKAILKGRILDYQKGMPNKGSLYFQDVIRDEAQEGKIRIQDDGTFYHEMNVFMVTPCMIRFPFGAVSYLLAPGETTSVVINLRENARKQSHLRQAEKPYGKEIYYGGYLAGVQQELADHPMSFSFTEGNSYEEYQQQIKKLNGKTAEEYKAQILARLPEFRKQITQSKGSPAYKEIINTDLELSAALKIIETERNLKLVHIMTNGLEGEKANKYYAETKIDIPQGYYESLQDFTYILSPKACYNSRYPILFDIIRRIGIDDKILKSLSNHTAASYLIQNPKAQMIGVSMRDLNPLNDKQKAELSTMPAAYNDMALAMNNDLLKQIEINKKKTGFTVNETGEVSNEDLFPSIISKFRGHTLLVDFWATWCGPCRSANKQILPMKEELKDKDIIYLYITGETSPLGTWKNMIPDIHGEHFRVTDEQWSYLREKFSIRGVPTYFVIDKEGNITYKQTGFPGVDTMKEQLMKALEKEGHHHHHH | soluble |
| MSLFFRDVIGQEEAKYRLIQEVSEGRIPHAQLFCGPEGVGKFPLALAYARYLSCTNRSDTDACGVCPSCVKFNKLVHPDVHFVFPVVKNGRSDDYIVEWRKLVLNNPYFTINHWLNEINAENAQAVIYTKESDEIMKKLSLKSSEGGFKITLLWLPEKMQQACANKLLKLLEEPPEKTIFLLVSEAPDLILQTILSRTQRFNLRKIEEECMAEALQSKYGVQQATSISIAHLANGNFIKALETIHLNEEGHHHHHH | soluble |
| MGSDKIHHHHHHMAAGCTTPMERRQANGNDEYVNAQTTAPLKVPEGLKSPNYSREYDIPTLGAKANRELVGKNLDIRPPLQVLPMAEGTRVEEGSDNVKVIVESFDNSLDLKQEIFGLLKDHLQSRNIEIVKEDFASGTLETGWIETQEVLESSLWGSDKVFNLKQRYQYQVEVRPHGRTGAVIINLVDHQESYDGDDLKTALSADDKRRYAIDMLNNSIAYMAVKREQAIKAKRVRESLGIGVELVDGAEEGDAFYLAQGDSIRYGLT | not soluble |
| MTTLEILRSGPLALVEDLGRAGLAHLGVGRSGAADRRSHTLANRLVANPDDWATVEVTFGGFSARVRGGDVDIAVTGADTDPTVNGIMVGTNSIHHVRDGQVISLGTPRAGLRTYLAVRGGVCVEPVLGSRSYDVMSAIGPSPLRAGDVLPVGEHTDDYPELDQAPVAAIEEHLVELRVVPGPRDDWLVDPDALVHTIWMASNRSDRVGMRLQGRPLQHRWPDRQLPGEGVTRGAIQVPPNGLPVILGPDHPITGSYPVVGVITDEDIDKVAQIRPGQYVRLHWARPRSRLPGQGVTQAW | soluble |
| MSLSKLGYIPNQAARTLITNKTLTIGLIQKSSAPEIRQNPFNSDVLNGINQACNVRGYSTRMTVSENSGDLYHEVKTMIQSKSVDGFILLYSLKDDPIEHLLNEFKVPYLIVGKSLNYENIIHIDNDNIDAAYQLTQYLYHLGHRHILFLQESGHYAVTEDRSVGFKQYCDDVKISNDCVVIKSMNDLRDFIKQYCIDASHMPSVIITSDVMLNMQLLNVLYEYQLRIPEDIQTATFNTSFLTENATPSQTSVNINPDVLGFTAGNTIIDVLRNETISFREKLISTQIVERVSTTKIEGHHHHHH | soluble |
| MASTKSELIERLATQQSHIPAKTVEDAVKEMLEHMASTLAQGGSGGLTKAEMSEYLFDKLGLSKRDAKELVELFFEEIRRALENGEQVELSGFGNFDLRDKNQRPGRNPKTGEDIPITARRVVTFRPGQKLKSRVENAGGGERIEIRGFGSFSLHYRAPRTGRNPKTGDKVELEGKYVPHFKPGKELRDRANIYGGSGHHHHHH | soluble |
| MGHHHHHHSHMANSAGSMANSAGSLPTTTIGSFPQSREVRKYRADWKNKRITDEAYETFLKNEIARWIKIQEDIGLDVLVHGEFERNDMVEFFGEKLQGFLVTKFGWVQSYGSRAVKPPIIYGDVKWTAPLTVDETVYAQSLTDKPVKGMLTGPVTILNWSFERVDLPRKVVQDQIALAINEEVLALEAAGIKVIQVDEPALREGLPLRSEYHEQYLKDAVLSFKLATSSVRDETQIHTHMCYSQFGQIIHAIHDLDADVISIETSRSHGDLIKDFEDINYDLGIGLGVYDIHSPRIPTKEEITTAINRSLQQIDRSLFWVNPDCGLKTRKEEEVKDALTVLVNAVKA | not soluble |
| MSLTAPHIVDPAGLLGEALSEASPDLMRSLLQTVINALLSADADAVVGAEWGQPTPGRRSQRNGYRHRGLDTRVGTIDVAVPKLRKGTYFPDWLLERRKRAESALITVVADCYLAGVSTRRMDKLVKTLGIDSLSKSQVSRMATDLDEHVEQFRHRPLDSAGPFTFVAADALTMKVREGGRVVNGVVLLATGVNGDGHREVLGMRVVTSETGPAWNEFFADLVARGLAGVRLVTSDAHAGLREAIAANLPGAAWQRCRTHYAANLMSICPKSMWPAVKAMLHSVYDQPDAPAVAAQFDRLIDYVTDKLPAVAEHLSAAREDILAFTAFPKDVWTQIWSNNPAVIWSPAVGVVDVRHEASGSLVLLSGRGYLQPSRKQSLRRKSACYTGGFANLVGEGHHHHHH | soluble |
| MIRKHSATLHGHRTSISLEDAFWDELKIIAERRKVSFAALLAEIDDSRPADSNLSSSLRVYVLNWLKTR | not soluble |
| VSIKKSSGLNFDNTAIAINAGKGLEFDTNTSESPDINPIKTKIGSGIDYNENGAMITKLGAGLSFDNSGAITIGNKNDDKGSGYIPEAPRDGQAYVRKDGEWVLLSTFL | soluble |
| MNPEEQIVTWLISLGVLESPKKTICDPEEFLKSSLKNGVVLCKLINRLMPGSVEKFCLDPQTEADCINNINDFLKGCATLQVEIFDPDDLYSGVNFSKVLSTLLAVNKATEDQLSERPCGRSSSLSAANTSQTNPQGAVSSTVSGLQRQSKTVEMTENGSHQLIVKARFNFKQTNEDELSVCKGDIIYVTRVEEGGWWEGTLNGRTGWFPSNYVREIKSSERPLSPKAVKGFETAPLTKNYYTVVLQNILDTEKEYAKELQSLLVTYLRPLQSNNNLSTVEVTSLLGNFEEVCTFQQTLCQALEECSKFPENQHKVGGCLLSLMPHFKSMYLAYCANHPSAVNVLTQHSDELEQFMENQGASSPGILILTTNLSKPFMRLEKYVTLLQELERHMEDTHPDHQDILKAIVAFKTLMGQCQDLRKRKQLELQILSEPIQAWEGEDIKNLGNVIFMSQVMVQYGACEEKEERYLMLFSNVLIMLSASPRMSGFIYQGKIPIAGTVVTRLDEIEGNDCTFEITGNTVERIVVHCNNNQDFQEWLEQLNRLIRGPASCSSLSKTSSSSCSAHSSFSSTGQPRGPLEPPQIIKPWSLSCLRPAPPLRPSAALGYKERMSYILKESSKSPKTMKKFLHKRKTERKPSEEEYVIRKSTAALEEDAQILKVIEAYCTSANFQQGHGSSTRKDSIPQVLLPEEEKLIIEETRSNGQTIMEEKSLVDTVYALKDEVRELKQENKRMKQCLEEELKSRRDLEKLVRRLLKQTDECIRGESSSKTSILP | soluble |
| MGSDKIHHHHHHMLEIIMSSIKSRQLTHSALASNIDIHDVTHFLLELDALKRVNRRSYVTGANRLENSAEHSWHLAMACWSIAELFELDVNQEKLLKMALVHDLGEIDAGDTFLYADTRGDAHLEERAGIARLQGERGNGISNLNEIWEEQETGSSTETQLLKVVDRLLPFLLNLNTNGKTWIELSVTRSQVSEAHAFIKDSFPSIHDWLAAQIEFATQQGWLIDT | not soluble |
| MGSDKIHHHHHHMAENFLTQDEVDALLNFENGSKHQQTAQKENEVSYPGGVRPYNMATQERIVRGRMPALEIINARFANSLQIGLYNFLRRGVDISAGSIKTIKYSEFTRSLVVPANINLVSMKPLRGTALFTIDPNLIFLIVDNMFGGDGRFHTRVEGREFTLTEQGIIRRLLDVLFEHYEKAWQSVYPVKFEYIRAEMNPQFANIVTPTDIVVASAFELNLGGNRGEFYTCIPYTMLEPIRDLLNNSMQEDRAEVDKNWIKSLTRQVQGAEIEIIANLGQTQVTLHQILNMQEGDVIALDIPDTVVAIANNVPIMDCHYGILNGHYALKVKTVRSPNETD | not soluble |
| MGSDKIHHHHHHMAAFQTAAQLARAVQSGETTPQQLLHGALARAEAVRGLNALVSLNSHAEEQAAAVQGRMQAGETLPLAGVPIVVKDNINVTGTRTTCGSRMLANYVSPYTATAAQKLQGAGAVIVGKANMDEFAMGSSTESSASGPTLNPWDHERVPGGSSGGSAVAVAAGISPVSLGSDTGGSVRQPAALCGVYGFKPTYGRVSRYGLVAYASSLDQIGPFARSAEDLALLMNVIAGHDPRDATSLDAPARFAVGGADSLRGLRVGVIRESLGGNTPGVEAALGATLDALRGAGAVVGEVSIPELEYAIAAYYLIAMPEASSNLARYDGMVYGERVPGGDVTRSMTLTREQGFGQEVQRRILLGTYALSSGYYDAYYAKAMKVRRLIADEFTTAFGQYDVLVTPTSPFPAFRRGEKASDPLAMYAADVDTVAVNLAGLPALSVPAGFEEVDGKRLPVGVQFIAPALQDERLLALAGALEAVGAVQLEMPQD | not soluble |
| MKRREVLQAGMALGGLAGLGRALAQGGFTLTLVHTNDTHAHLEPVELTLSGEKTPVGGVARRVALFDRVWARAKNPLFLDAGDVFQGTLYFNQYRGLADRYFMHRLRYRAMALGNHEFDLGPGPLADFLKGARFKVVSANVDASREPRLKGLFAPYAVVVVGGERVGIIGLTTPDTREISNPGPTVAFLDPYESAQKAVYELLAKGVNKIVVLSHLGYGEDLKLARRLVGVQVIVGGHSHTLLGSFPHKELSPAGPYPTVVKNPEGKDVLVVQAWEWGKVVGLLEVTFDAKGELLAYKGEALLMTPEAAPEDFFAKEALLAYAQPVMALMQQVIAEAKVDLVGERAVVRRRESNLGNLITDGMLWKTRNAGTQIALQNGGGIRASIPKGPITVGKVYEVLPFGNTLVVMDLKGKEILAALENGVSQWENTAGRFLQVSGLRYAFDLSRPAGSRVVRVEVKTEKGYVPLDLEATYRVVVNNFIANGGDGFTVLKEAQGYRVDTGFSDAESFMDYLKELKVVEAGLEGRIEVLNEPKGERPAYFAYRVPGLVGV | soluble |
